Measured values from patent KR20150001391A.

Molecular target: M13 박테리오파지에서 전시되는 스트렙타비딘(streptavidin)
Assay: fluorescence ELISA; plate coated with streptavidin-displaying M13 phage; fusion protein at 10, 50, 100 μg/ml; ex 554 nm / em 581 nm; reference is biotin-bound RFP

Row | fold fluorescence against biotin-bound RFP | Binder
1 | 2 배 (fold) | (2B12+RFP) (protein, part only; not given: linker, RFP, His tag, part only) chain, part: ESGGGSVQVGESLRLACTASEFTFDDTDVGWYRQAPGNECELVSSINSDGGTYYTDSVKGRFTISLDNGKNTVYLQMDSLKPEDTAVYYCVADAKVKAQALGTLLCRILGNWGQGTQVTVSS
2 | 2 배 (fold) | (53A1+RFP) (protein, part only; not given: linker, RFP, His tag, part only) chain, part: ESGGGSVQVGESLRLACTASEFTFDDTDVGWYRQAPGNECELVSSINSDGGTYYTDSVKGRFTISLDNGKNTVYLQMDSLKPEDTAVYYCVADAKVKAQALGTLLCRILGNWGQGTQVTVSS
3 | 2 배 (fold) | (2E9+RFP) (protein, part only; not given: linker, RFP, His tag, part only) chain, part: ESGGGSVQAGGSLRLSCTASGFTFADSDMGWYRQAPGKERERVAAIDSDGRTSYADSVKGRFTISKDNAKNTLYLQMNSLKPEDTAMYYCAAGVPTYDSSWCSRDYWGKGTQVTVSS

Molecular target: M13 박테리오파지에서 전시되는 스트렙타비딘(streptavidin)
Assay: fluorescence ELISA; plate coated with streptavidin-displaying M13 phage; fusion protein at 10, 50, 100 μg/ml; ex 395 nm / em 509 nm; reference is biotin-bound GFP

Row | fold fluorescence against biotin-bound GFP | Binder
4 | 2 배 (fold) | (2B12+GFP) (protein, part only; not given: linker, GFP, His tag, part only) chain, part: ESGGGSVQVGESLRLACTASEFTFDDTDVGWYRQAPGNECELVSSINSDGGTYYTDSVKGRFTISLDNGKNTVYLQMDSLKPEDTAVYYCVADAKVKAQALGTLLCRILGNWGQGTQVTVSS
5 | 2 배 (fold) | (53A1+GFP) (protein, part only; not given: linker, GFP, His tag, part only) chain, part: ESGGGSVQVGESLRLACTASEFTFDDTDVGWYRQAPGNECELVSSINSDGGTYYTDSVKGRFTISLDNGKNTVYLQMDSLKPEDTAVYYCVADAKVKAQALGTLLCRILGNWGQGTQVTVSS
6 | 2 배 (fold) | (2E9+GFP) (protein, part only; not given: linker, GFP, His tag, part only) chain, part: ESGGGSVQAGGSLRLSCTASGFTFADSDMGWYRQAPGKERERVAAIDSDGRTSYADSVKGRFTISKDNAKNTLYLQMNSLKPEDTAMYYCAAGVPTYDSSWCSRDYWGKGTQVTVSS
